From PMC5025769, “A highly efficient sorbitol dehydrogenase from Gluconobacter oxydans G624 and improvement of its stability through immobilization” (Scientific Reports, 2016) come the findings set out here.

The target of data set [1] is T1, GoSLDH (sorbitol dehydrogenase) (Gluconobacter oxydans, UniProt Q9KWR5).
T1 construct: purified 6x His-tagged recombinant GoSLDH
T1 sequence (Q9KWR5 1-485): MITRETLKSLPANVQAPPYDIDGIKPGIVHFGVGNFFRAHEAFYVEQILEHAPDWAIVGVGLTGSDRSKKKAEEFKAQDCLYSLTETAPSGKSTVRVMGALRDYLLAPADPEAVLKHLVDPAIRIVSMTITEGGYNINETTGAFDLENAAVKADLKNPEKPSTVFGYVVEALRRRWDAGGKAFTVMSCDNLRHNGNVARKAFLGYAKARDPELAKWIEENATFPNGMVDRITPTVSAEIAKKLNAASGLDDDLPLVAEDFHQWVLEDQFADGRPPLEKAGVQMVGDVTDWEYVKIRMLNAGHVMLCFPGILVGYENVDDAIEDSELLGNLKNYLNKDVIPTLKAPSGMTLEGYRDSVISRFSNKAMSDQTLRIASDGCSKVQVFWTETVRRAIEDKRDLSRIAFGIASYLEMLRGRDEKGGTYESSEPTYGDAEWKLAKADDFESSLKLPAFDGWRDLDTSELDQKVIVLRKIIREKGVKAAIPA
Nature of the data set: substrate specificity assay at […]. Format: biochemical.

For data set [2], the target named is T2, PfMDH (mannitol dehydrogenase) (Pseudomonas fluorescens, UniProt O08355, K295Q).
T2 construct: gene mtlD
Nature of the data set: isothermal titration calorimetry, […] °C. Format: binding.

Data set [3] concerns the target GoSLDH (sorbitol dehydrogenase) (Gluconobacter oxydans, UniProt Q9KWR5, K294Q). Nature of the data set: isothermal titration calorimetry, […] °C. Format: binding.
Substrate in data set [4]: OC[C@@H](O)[C@@H](O)[C@H](O)[C@@H](O)CO
Nature of the data set: purified protein. The note with it: NADP^+. Format: biochemical, Gluconobacter oxydans.

Data set [5] concerns the molecule itself. Nature of the data set: SEC; Bio-Sil SEC-250 column (300 x 7.8 mm) on HPLC; mobile phase pH 6.8, 50 mM Na2HPO4, 50 mM NaH2PO4, 50 mM NaCl, 10 mM NaN3; 1.0 mL/min; quaternary structure from comparison of molecular weights by HPLC and SDS-PAGE. (In general: SEC sorts molecules by how far they enter the pores of the column.)
Substrate in data set [6]: NC(=O)c1ccc[n+]([C@@H]2O[C@H](COP(=O)(O)OP(=O)(O)OC[C@H]3O[C@@H](n4cnc5c(N)ncnc54)[C@H](OP(=O)(O)O)[C@@H]3O)[C@@H](O)[C@H]2O)c1
Nature of the data set: purified protein. Conditions: varied: cofactor.

T2 sequence (O08355 entry or part of it K295Q): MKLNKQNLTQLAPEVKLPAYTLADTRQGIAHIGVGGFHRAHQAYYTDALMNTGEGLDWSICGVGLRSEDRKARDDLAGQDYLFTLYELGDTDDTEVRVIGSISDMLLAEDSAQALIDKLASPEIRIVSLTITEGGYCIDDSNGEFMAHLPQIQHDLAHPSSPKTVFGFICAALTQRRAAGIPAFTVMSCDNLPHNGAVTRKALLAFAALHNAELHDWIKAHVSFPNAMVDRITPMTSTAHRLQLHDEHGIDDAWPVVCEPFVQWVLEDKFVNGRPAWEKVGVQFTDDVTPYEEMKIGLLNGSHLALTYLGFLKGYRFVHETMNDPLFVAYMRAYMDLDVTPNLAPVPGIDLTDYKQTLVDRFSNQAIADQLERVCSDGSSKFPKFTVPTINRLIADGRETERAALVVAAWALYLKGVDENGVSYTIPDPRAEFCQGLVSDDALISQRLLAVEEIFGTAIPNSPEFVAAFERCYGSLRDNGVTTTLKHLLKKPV

Consider `OC[C@@H](O)[C@@H](O)[C@H](O)[C@H](O)CO` [mannitol], for which the “substrate specificity assay at 200 mM” value in data set [1] was “GoSLDH is highly specific towards D-sorbitol, mannitol, and D-arabinitol (Table S2)”.
As for `OC[C@@H](O)[C@@H](O)[C@H](O)[C@@H](O)CO` [D-sorbitol], the Kd worked out at 278 µM in data set [2] and 96 µM in data set [3].

B1: sorbitol dehydrogenase (GoSLDH) from Gluconobacter oxydans G624 (enzyme, UniProt Q9KWR5 1-485, looked up)
chain: T1 sequence (Q9KWR5 1-485)
notes: sorbitol dehydrogenase (SLDH) of Gluconobacter oxydans G624; complete 1455-bp codon-optimized gene; molecular mass 53.64 kDa by SDS-PAGE; The abstract speaks of the complete 1455-bp gene, the methods of 1.458 kb; also called recombinant GoSLDH; polyol-specific long-chain dehydrogenase from G. oxydans G624; source: E. coli BL21 (DE3)-CodonPlus RIL, pET-28(a), purified (Ni-NTA Superflow column)
B1: in data set [4], the Km worked out at 38.9 mM, the kcat stood at 3820 s⁻¹ and the kcat/Km was determined as 98100 M⁻¹ s⁻¹. Besides, the “stoichiometry N” value in data set [5] was determined as 2. Further, the Km in data set [6] came out at 0.0882 mM.

As a reminder, the Kd is the equilibrium constant for the complex coming apart. A higher Kd goes with weaker binding. As a reminder, the Km is the concentration of substrate that gives half-maximal velocity. One may read the kcat as the number of substrate molecules converted per active site and unit of time at saturation. A word on the kcat/Km: it is the second-order rate constant that governs catalysis at low substrate concentration. As usually defined, the stoichiometry N is a count of units in the complex or per binding partner.
